Test results published in IntAct's records for PubMed 23524951.

B1: Activating molecule in BECN1-regulated autophagy protein 1 (Homo sapiens), Q9C0C7-3 (parent)
chain: MKVVPEKNAVRILWGRERGARAMGAQRLLQELVEDKTRWMKWEGKRVELPDSPRSTFLLAFSPDRTLLASTHVNHNIYITEVKTGKCVHSLIGHRRTPWCVTFHPTISGLIASGCLDGEVRIWDLHGGSESWFTDSNNAIASLAFHPTAQLLLIATANEIHFWDWSRREPFAVVKTASEMERVRLVRFDPLGHYLLTAIVNPSNQQGDDEPEIPIDGTELSHYRQRALLQSQPVRRTPLLHNFLHMLSSRSSGIQVGEQSTVQDSATPSPPPPPPQPSTERPRTSAYIRLRQRVSYPTAECCQHLGILCLCSRCSGTRVPSLLPHQDSVPPASARATTPSFSFVQTEPFHPPEQASSTQQDQGLLNRPSAFSTVQSSTAGNTLRNLSLGPTRRSLGGPLSSHPSRYHREIAPGLTGSEWTRTVLSLNSRSEAESMPPPRTSASSVSLLSVLRQQEGGSQASVYTSATEGRGFPASGLATESDGGNGSSQNNSGSIRHELQCDLRRFFLEYDRLQELDQSLSGEAPQTQQAQEMLNNNIESERPGPSHQPTPHSSENNSNLSRGHLNRCRACHNLLTFNNDTLRWERTTPNYSSGEASSSWQVPSSFESVPSSGSQLPPLERTEGQTPSSSRLELSSSASPQEERTVGVAFNQETGHWERIYTQSSRSGTVSQEALHQDMPEESSEEDSLRRLSPAAYYAQRMIQYLSRRDSIRQRSMRYQQNRLRSSTSSSSSDNQGPSVEGTDLEFEDFEDNGDRSRHRAPRNARMSAPSLGRFVPRRFLLPEYLPYAGIFHERGQPGLATHSSVNRVLAGAVIGDGQSAVASNIANTTYRLQWWDFTKFDLPEISNASVNVLVQNCKIYNDASCDISADGQLLAAFIPSSQRGFPDEGILAVYSLAPHNLGEMLYTKRFGPNAISVSLSPMGRYVMVGLASRRILLHPSTEHMVAQVFRLQQAHGGETSMRRVFNVLYPMPADQRRHVSINSARWLPEPGLGLAYGTNKGDLVICRPEALNSGVEYYWDQLNETVFTVHSNSRSSERPGTSRATWRTDRDMGLMNAIGLQPRNPATSVTSQGTQTLALQLQNAETQTEREVPEPGTAASGPGEGEGSEYGASGEDALSRIQRLMAEGGMTAVVQREQSTTMASMGGFGNNIIVSHRIHRSSQTGTEPGAAHTSSPQPSTSRGLLPEAGQLAERGLSPRTASWDQPGTPGREPTQPTLPSSSPVPIPVSLPSAEGPTLHCELTNNNHLLDGGSSRGDAAGPRGEPRNR
partner: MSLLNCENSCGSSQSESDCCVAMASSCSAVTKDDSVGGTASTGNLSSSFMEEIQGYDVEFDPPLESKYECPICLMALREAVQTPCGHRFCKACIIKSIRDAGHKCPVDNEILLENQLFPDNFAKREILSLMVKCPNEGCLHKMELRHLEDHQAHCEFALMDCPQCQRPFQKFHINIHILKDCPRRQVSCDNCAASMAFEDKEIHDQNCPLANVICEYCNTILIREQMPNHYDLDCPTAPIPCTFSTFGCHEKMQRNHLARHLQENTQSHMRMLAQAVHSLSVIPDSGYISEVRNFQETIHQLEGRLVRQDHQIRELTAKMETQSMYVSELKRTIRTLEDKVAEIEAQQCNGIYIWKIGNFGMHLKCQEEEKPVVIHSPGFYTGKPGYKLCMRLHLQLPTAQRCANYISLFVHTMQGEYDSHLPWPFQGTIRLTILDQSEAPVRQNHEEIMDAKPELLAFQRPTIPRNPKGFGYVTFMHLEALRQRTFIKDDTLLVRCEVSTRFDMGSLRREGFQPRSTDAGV

Variants of: B1
Settings: with traf6_human TRAF6, Q9Y4K3

Row | effect of a mutation on the interaction | Variant
1 | disrupting interaction strength | E620A
